The target of this assay is hsp7f_yeast SSE1 (UniProt P32589).
Sequence of hsp7f_yeast SSE1 (P32589 whole entry): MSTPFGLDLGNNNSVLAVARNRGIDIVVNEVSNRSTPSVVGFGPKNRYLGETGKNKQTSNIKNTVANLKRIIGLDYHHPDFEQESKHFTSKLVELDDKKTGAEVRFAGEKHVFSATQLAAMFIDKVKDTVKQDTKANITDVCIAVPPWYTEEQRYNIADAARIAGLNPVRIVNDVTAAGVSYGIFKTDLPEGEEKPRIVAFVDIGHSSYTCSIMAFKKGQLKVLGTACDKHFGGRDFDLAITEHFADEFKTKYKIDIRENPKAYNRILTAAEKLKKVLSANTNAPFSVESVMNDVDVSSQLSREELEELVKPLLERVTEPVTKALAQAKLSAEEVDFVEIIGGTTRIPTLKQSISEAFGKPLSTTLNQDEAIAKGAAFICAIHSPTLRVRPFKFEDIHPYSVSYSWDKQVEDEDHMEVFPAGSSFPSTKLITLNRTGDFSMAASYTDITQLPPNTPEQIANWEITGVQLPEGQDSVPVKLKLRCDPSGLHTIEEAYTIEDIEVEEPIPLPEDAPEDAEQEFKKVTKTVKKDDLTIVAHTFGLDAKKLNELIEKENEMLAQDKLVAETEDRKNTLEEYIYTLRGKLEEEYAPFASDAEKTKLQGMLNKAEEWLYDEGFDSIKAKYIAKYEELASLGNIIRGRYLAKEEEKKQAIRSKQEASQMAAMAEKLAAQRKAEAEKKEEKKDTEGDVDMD

“Heat shock protein SSA1 (Saccharomyces cerevisiae), P10591 A297E”: the “effect of a mutation on the interaction” value was “decreasing interaction”.

For “Heat shock protein SSA1 (Saccharomyces cerevisiae), P10591 Q31A”, the “effect of a mutation on the interaction” value is reported as “decreasing interaction”.

Values taken from IntAct's records for PubMed 18555782.
